We go through two substances from US20070122406A1.

“And” between values parts separate entries of the source, which are not always exact repeats. Equal entries are not always repeated. Where two headings read alike, the source gives them in different places.

For experiment [1], the target named is FcgRI. Nature of the experiment: SPR.
The target in experiment [2] is extracellular domain of Ep-CAM (DIGylated) (UniProt P16422). Nature of the experiment: antigen binding.
For experiment [3], the target named is recombinant human Ep-CAM/Fc (R&D Systems) (human) (UniProt P16422). Put plainly: SPR.
Sequence of recombinant human Ep-CAM/Fc (R&D Systems) (human) (P16422 24-265): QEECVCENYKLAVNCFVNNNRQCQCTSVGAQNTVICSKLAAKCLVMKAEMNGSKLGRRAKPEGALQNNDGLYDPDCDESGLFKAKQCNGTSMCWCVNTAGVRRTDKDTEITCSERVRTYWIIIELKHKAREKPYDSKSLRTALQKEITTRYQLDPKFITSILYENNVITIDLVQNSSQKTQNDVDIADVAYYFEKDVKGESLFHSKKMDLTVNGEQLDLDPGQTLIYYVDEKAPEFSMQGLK
Experiment [4] has the same target. Put plainly: SPR. The source holds these as a separate data set.

Sequence of extracellular domain of Ep-CAM (DIGylated) (P16422 24-265): as above

For “H3.77_L3 S239D IgG1 (from UniProt P01857 1-330)”, in experiment [1], the equilibrium dissociation constant (Kd) worked out at 1.37 nM.

Regarding “Wild-type IgG1 Ep-CAM antibody (17-1A H0L0 variable regions, chimeric human IgG1)”, the EC50 in experiment [2] was 1.9E-07 ? and 2.5E-07 ?. Also, the Kd was determined as 158 nM in experiment [3] and 159 nM in experiment [4].
